The values that follow come from patent US20070243589A1 (Pfizer, published 2007).

Assay [1] addresses T1, human IL-22 (human, UniProt Q9GZX6 34-179).
T1 sequence: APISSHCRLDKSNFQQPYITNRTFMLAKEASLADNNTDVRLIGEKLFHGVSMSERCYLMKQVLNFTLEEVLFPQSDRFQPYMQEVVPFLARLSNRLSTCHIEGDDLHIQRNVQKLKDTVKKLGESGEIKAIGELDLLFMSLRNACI
The experiment in a line: cell-based or functional assay.

The target of assay [2] is T1, human IL-22. The experiment in a line: cell-based or functional assay. The source holds these as a separate data set.
Assay [3] addresses T2, BSA (bovine, UniProt P02769).
T2 construct: background wells labelled BSA; also called bovine serum albumin
The experiment in a line: ELISA: wells labelled BSA, IgG at 1 µg/ml, HRP anti-human IgG, A450. The protocol: (§1) Cross species reactivity of germlined and non-germlined optimized antibodies were determined as follows: ELISA plates (Costar, Cat. #3590) were coated overnight with 1 μg/ml of rat, mouse, or human IL-22 or human IL-26 in PBS buffer. Plates were washed with PBST buffer (0.05% Tween20 in PBS) 3 times, then blocked with 1% BSA (Sigma A8918)/PBST for 1 hr at RT. Antibodies were added at 1 μg/ml, incubated 1 hr at 25° C. […] The plates were incubated for 1 hour at 25° C., then washed with PBST, and developed with TMB (KPL, Cat. #50-76-04). Reaction was stopped with 0.18 M H₂S0₄. Plates were read at OD 450 nm.
For orientation: ELISA stands for enzyme-linked immunosorbent assay.

In assay [4] the target is T3, murine IL-22 (murine, UniProt Q9JJY9 34-179).
T3 construct: also called mouse IL-22
T3 sequence: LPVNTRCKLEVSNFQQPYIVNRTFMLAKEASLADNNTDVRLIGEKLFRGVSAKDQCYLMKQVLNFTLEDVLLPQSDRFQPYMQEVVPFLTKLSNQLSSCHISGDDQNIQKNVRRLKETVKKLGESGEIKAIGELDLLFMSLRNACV
The experiment in a line: ELISA: plate coated with 1 µg/ml antigen, IgG at 1 µg/ml, HRP anti-human IgG, A450. How it is done:
as §1

Assay [5] has as its target T4, IL-26 (human, UniProt Q9NPH9).
T4 construct: coated on the ELISA plate at 1 µg/ml; also called human IL-26
T4 sequence (cytokine, looked up): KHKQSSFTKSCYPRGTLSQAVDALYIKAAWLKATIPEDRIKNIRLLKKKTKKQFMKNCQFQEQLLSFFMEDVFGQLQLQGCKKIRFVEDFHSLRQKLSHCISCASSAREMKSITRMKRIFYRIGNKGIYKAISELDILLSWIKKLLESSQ
The experiment in a line: ELISA: plate coated with 1 µg/ml human IL-26, IgG at 1 µg/ml, HRP anti-human IgG, A450. How it is done: as §1

Assay [6] addresses T5, biotinylated IL-22 with an N-terminal His/FLAG tag (bio.IL-22H/F) (human, UniProt Q9GZX6 34-179, biotinylated (site not stated)).
T5 construct: not shown: N-terminal His/FLAG tag
T5 sequence: T1 sequence
The experiment in a line: biotinylated IL-22 binding IL-22 receptor complex competition assay, purified scFv, parent. How it is done: (§2) Microtiter plates were coated with an IL-22 receptor complex antibody (1 μg/ml in PBS), and incubated for 1.5 hours at room temperature. Plates were washed three times in PBST, and blocked for 1 hour at room temperature with 2% MPBS. After a further 3 washes, diluted cell conditioned medium containing an IL-22 receptor complex was added and incubated overnight at 4° C. Crude scFv supernatants were prepared as described above. The following day, 25 μl of diluted scFv sample and 25 μl of bio.IL-22H/F (6 ng/ml) were added to the washed plates, and incubated for 1.5 hours at room temperature. Plates were washed 3 times in PBST, then binding of bio.IL-22H/F to the IL-22 receptor complex was detected with Europium-Streptavidin and the DELFIA® reagent kit (PerkinElmer). Time Resolved Fluorescence was measured using a Victor 2™ Plate Reader (Perkin Elmer).
Sequence data for the six parent clones was used to identify the nearest germline sequence for the heavy and light chain of each clone. Appropriate mutations were made using standard site directed mutagenesis techniques with the appropriate mutagenic primers. Mutation of sequences was confirmed by sequence analysis. Purified scFv from the germlined parent clones were tested in the biotinylated IL-22 binding IL-22 receptor complex competition assay as described earlier, in order to establish the clone potency as measured by IC₅₀ values in the assay.

The target of assay [7] is T5, biotinylated IL-22 with an N-terminal …. The experiment in a line: IL-22 receptor complex inhibition assay (bio.IL-22H/F binding to IL-22 receptor complex, DELFIA), scFv. How it is done: (§3) Both the IL-22/IL-22R binding assay (described above) and the IL-22/IL-22 receptor complex assay (described below) were used. ScFv concentrations were titrated in order to establish the clone potencies as measured by assay IC₅₀ values. These were determined using GraphPad Prism software and four-parameter logistic equation curve fitting.
as §2

Assay [8] shares this target. The experiment in a line: DELFIA competition assay: scFv titrated against bio.IL-22H/F binding to the captured IL-22 receptor complex. How it is done: as §3, §2
Assay [9] shares this target. The assay is described as above. How it is done: as §2
(§4) Purified scFv from positive clones identified from the screening were tested in the DELFIA® IL-22 receptor complex competition assay as described above. A titration of scFv concentrations was used in order to establish the clone potency as measured by IC₅₀ values in the assay. Fourteen optimized clones were designated 097D09, 062A09, 062G05, 087B03, 367D04, 368D04, 166B06, 166G05, 375G06, 376B10, 354A08, 355B06, 355E04, and 356A11.
This is another data set of the same source.

For assay [10] the target is unchanged. The description is as above. The protocol: as §2, §4
The source holds these as a separate data set.

Where a chain is given by its changes, count along the chain named.

T2 sequence (P02769 25-607 limits assumed): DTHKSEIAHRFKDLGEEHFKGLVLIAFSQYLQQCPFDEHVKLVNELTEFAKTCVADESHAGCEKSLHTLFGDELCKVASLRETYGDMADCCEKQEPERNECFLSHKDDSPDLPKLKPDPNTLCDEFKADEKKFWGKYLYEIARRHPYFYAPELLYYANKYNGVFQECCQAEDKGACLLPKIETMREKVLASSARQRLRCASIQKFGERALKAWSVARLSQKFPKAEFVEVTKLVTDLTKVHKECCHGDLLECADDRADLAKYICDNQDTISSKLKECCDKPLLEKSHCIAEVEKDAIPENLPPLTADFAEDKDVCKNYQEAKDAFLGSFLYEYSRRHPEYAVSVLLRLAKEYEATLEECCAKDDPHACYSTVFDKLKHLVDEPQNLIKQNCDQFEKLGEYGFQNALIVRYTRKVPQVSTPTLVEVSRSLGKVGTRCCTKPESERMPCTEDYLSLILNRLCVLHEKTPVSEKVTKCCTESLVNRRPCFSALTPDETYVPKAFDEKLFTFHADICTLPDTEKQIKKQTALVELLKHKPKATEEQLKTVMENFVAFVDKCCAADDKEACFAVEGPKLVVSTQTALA

B1: 355B06 germlined IgG (antibody, V domains shown)
VH: QVQLVQSGAEVKKPGASVKVSCKASGYTFTDYYMHWVRQAPGQGLEWVGWINPYTGSAFYAQKFRGRVTMTRDTSISTAYMELSRLRSDDTAVYYCAREPEKFGESSGQLWGRGTLVTVSS
VL: QAVLTQPPSVSGAPGQRVTISCTGSSSNIGAGYGVHWYQQLPGTAPKLLIYGDSNRPSGVPDRFSGSKSGTSASLAITGLQAEDEADYYCQSYDSGLSGYVFGGGTQLTVLG
For the molecule B1, in assay [1], the “IC50 of IgG in BaF3-IL-22 proliferation assay” value (“IC50 of IgG” below) came out at 0.092 nM. Moreover, the “IC50 (pM) of germlined IgG in BaF3-IL-22R proliferation assay” value in assay [2] is 92 pM. In addition, the figures for the binding result in assay [3], in assay [4] and in assay [5] were “no binding (tested: 1 µg/ml (single concentration))”, “binds” and “no binding (tested: 1 µg/ml (single concentration))”, respectively.

B2: 355E04 germlined IgG (antibody, V domains shown)
VH: B1 VH with D31H, S57G, R65Q, G104D, E105S, S106P, S107N, G108A, Q109E, L110I
VL: B1 VL with D53N, G96S
For the molecule B2, the “IC50 of IgG” value in [1] is 0.1 nM. Besides, in assay [2], the “IC50 (pM) of germlined IgG in BaF3-IL-22R proliferation assay” value is 100 pM. Further, the binding result in assay [3] is “no binding (tested: 1 µg/ml (single concentration))”; in [4] it was “binds”; in [5], “no binding (tested: 1 µg/ml (single concentration))”.

B3: 097D09 IgG (non-germlined) (antibody, V domains shown)
VH: EVQLVESGGGLVTPGGSLRLSCAASGFTFSDYYMSWVRQAPGRGLEWVSAISGSGGSTYYADSVKGRITISRDNAKNSLYLQMSSLRSEDTAVYYCARGLWVWDPLDYWGRGTLVTVSS
VL: DIQMTQSPSTLSASIGDRVTITCRASEGIYHWLAWYQQKPGKAPKLLIYKASSLASGAPSRFSGSGFGTDFTLTISSLQPDDFATYYCQQYSEFAWTFGGGTKLEIKR
notes: IgG
In the case of B3, the “IC50 of IgG” value in assay [1] worked out at 0.197 nM. Moreover, the binding result in assay [3], in assay [4] and in assay [5] was “no binding (tested: 1 µg/ml (single concentration))” throughout.

B4: 368D04 IgG (non-germlined) (antibody, V domains shown)
VH: EVQLVESGGGVVRPGGSLRLSCAASGFTFDDYGMNWVRQAPGKGLEWVSGVNWNGGTRDYAASVKGRFTISRDNAKNSLYLQMNSLRAEDTALYYCARGWYSGAAWNMGYWGRGTLVTVSS
VL: QAVLTQPSSVSGSPGQSITISCTGASGDVGAYNFVSWYQQHPGKTPKLIIYDVNKRPSGVSNRFSGSKSGNTASLTISGLQAEDESDYYCASLVSDFSVVFGGGTKVTVLG
B4: the “IC50 of IgG” value in [1] turned out to be 0.127 nM. The figures for the binding result in [3], in assay [4] and in [5] were “no binding (tested: 1 µg/ml (single concentration))”, “binds” and “no binding (tested: 1 µg/ml (single concentration))”, respectively.

B5: GIL68 scFv (non-germlined parent) (scFv)
scFv: EVQLVQSGAEVKKPGASVKVSCQASGYTFSDYYIHWVRQTPGQGFEWMGWVNPDTGGTRYAQKFQGWVTMTRDMSNTTAYMELPRLRDDDTAVYYCARDLTGFDPFDIWGQGTLVTVSSGGGGSGGGGSGGGGSAQSVLTQPPSVSVAPGKTATITCGGNNFRNKRVHWYQQRPGQAPVLVIYYDSDRPSGIPERFSGSRSGNTATLTISRVEAGDEADFYCQVWDSSTDRPLFGGGTKLTVLGAAA
One may read the IC50 as the concentration at which inhibition is half-maximal. B5: the half-inhibitory concentration (IC50) was found to be 9 nM in assay [6]; 7 nM in [7]; 10 nM in assay [8]; 7.45 nM in [9]; 10.6 nM in assay [10].

B6: 166B06 scFv (non-germlined) (scFv)
scFv: EVQLVQSGAEVKKPGASVKVSCQASGYTFSDYYIHWVRQTPGQGFEWMGWVNPDTGGTRYAQKFQGWVTMTRDMSNTTAYMELPRLRDDDTAVYYCARDLTGFDPFDIWGQGTLVTVSSGGGSSGGGGSGGGGSAQSVLTQPPSVSVAPGKTATITCGGNNFRNKRVHWYQQRPGQAPVLVIYYDSDRPSGIPERFSGSRSGNTATLTISRVEAGDEADFYCQVWDLFNDNGVFGGGTKLTVLGAAAH
notes: Optimized clone derived from GIL68
Regarding B6, the “IC50 of scFv in BaF3-IL-22 proliferation assay” value in [1] is 0.46 nM. Besides, the IC50 in assay [10] was 0.62 nM.
